Experimental data as given in patent publication US20160347808A1 (IMMATICS BIOTECHNOLOGIES, published 2016).

Molecular target: T1, HLA-A*02:01 (peptide-receptive MHC class I monomer from UV-ligand exchange) (human)
T1 construct: Monomers were captured on streptavidin-coated plates
Experiment: UV-exchange ELISA (anti-b2m); exchange yield grade: + >=10%, ++ >=20%, +++ >=50%, ++++ >=75%
Source text: Candidate peptides for T cell based therapies according to the present invention were further tested for their MHC binding capacity (affinity). The individual peptide-MHC complexes were produced by UV-ligand exchange, where a UV-sensitive peptide is cleaved upon UV-irradiation, and exchanged with the peptide of interest as analyzed. Only peptide candidates that can effectively bind and stabilize the peptide-receptive MHC molecules prevent dissociation of the MHC complexes. To determine the yield of the exchange reaction, an ELISA was performed based on the detection of the light chain (β2m) of stabilized MHC complexes. The assay was performed as generally described in Rodenko et al. (Rodenko et al., 2006).
96 well MAXISorp plates (NUNC) were coated over night with 2 ug/ml streptavidin in PBS at room temperature, washed 4× and blocked for 1 h at 37° C. in 2% BSA containing blocking buffer. Refolded HLA-A*02:01/MLA-001 monomers served as standards, covering the range of 15-500 ng/ml. Peptide-MHC monomers of the UV-exchange reaction were diluted 100 fold in blocking buffer. Samples were incubated for 1 h at 37° C., washed four times, incubated with 2 ug/ml HRP conjugated anti-β2m for 1 h at 37° C., washed again and detected with TMB solution that is stopped with […]. Absorption was measured at 450 nm. Candidate peptides that show a high exchange yield (preferably higher than 50%, most preferred higher than 75%) are generally preferred for a generation and production of antibodies or fragments thereof, and/or T cell receptors or fragments thereof, as they show sufficient avidity to the MHC molecules and prevent dissociation of the MHC complexes.

| Binder | peptide exchange yield [%] |
| --- | --- |
| ALMLQGVDLL [peptide ALMLQGVDLL (SEQ ID NO 8)] | 50 to 75 |
| AILDAHIEV [peptide AILDAHIEV (SEQ ID NO 95)] | ≥ 75 |
| AMNGKSFSV [peptide AMNGKSFSV (SEQ ID NO 98)] | 20 to 50 |
| KVFPGKISV [peptide KVFPGKISV (SEQ ID NO 86)] | 20 to 50 |
| ALLSQQTHL [peptide ALLSQQTHL (SEQ ID NO 81)] | 50 to 75 |
| EMIENIQSV [peptide EMIENIQSV (SEQ ID NO 75)] | 20 to 50 |
| GLDDGPDFL [peptide GLDDGPDFL (SEQ ID NO 66)] | 20 to 50 |
| FLFGYPKRL [peptide FLFGYPKRL (SEQ ID NO 103)] | 20 to 50 |
| KLLEVDLDTV [peptide KLLEVDLDTV (SEQ ID NO 99)] | 50 to 75 |
| KLFSILSTV [peptide KLFSILSTV (SEQ ID NO 63)] | 20 to 50 |
| GLSEGHTFQV [peptide GLSEGHTFQV (SEQ ID NO 101)] | 50 to 75 |
| MISELEVRL [peptide MISELEVRL (SEQ ID NO 70)] | 50 to 75 |
| FLAELPGSLSL [peptide FLAELPGSLSL (SEQ ID NO 6)] | 50 to 75 |
| ALLNGEYLLAA [peptide ALLNGEYLLAA (SEQ ID NO 54)] | 50 to 75 |
| LTIEDGIFEV [peptide LTIEDGIFEV (SEQ ID NO 83)] | 50 to 75 |
| LLTDNVVKL [peptide LLTDNVVKL (SEQ ID NO 59)] | 50 to 75 |

| Binder | peptide exchange yield [%] |
| --- | --- |
| KLYSRLVYV [peptide KLYSRLVYV (SEQ ID NO 96)] | 20 to 50 |
| KLLKLFQGV [peptide KLLKLFQGV (SEQ ID NO 61)] | 50 to 75 |
| KILVSLIEV [peptide KILVSLIEV (SEQ ID NO 102)] | 50 to 75 |
| AMADKMDMSL [peptide AMADKMDMSL (SEQ ID NO 58)] | 20 to 50 |
| LLFDAPDLRL [peptide LLFDAPDLRL (SEQ ID NO 87)] | 50 to 75 |
| ILDDHLSRV [peptide ILDDHLSRV (SEQ ID NO 9)] | 20 to 50 |
| ILHDINSDGVL [peptide ILHDINSDGVL (SEQ ID NO 85)] | 20 to 50 |
| KLDIKVETV [peptide KLDIKVETV (SEQ ID NO 88)] | ≥ 75 |
| KSMDIVLTV [peptide KSMDIVLTV (SEQ ID NO 94)] | 50 to 75 |
| NLLEKENYL [peptide NLLEKENYL (SEQ ID NO 57)] | 50 to 75 |
| GMLNEAEGKAIKL [peptide GMLNEAEGKAIKL (SEQ ID NO 69)] | 20 to 50 |
| GLLKPGLNVVL [peptide GLLKPGLNVVL (SEQ ID NO 90)] | 50 to 75 |
| ALWWGVVTV [peptide ALWWGVVTV (SEQ ID NO 97)] | 20 to 50 |
| ALDPELLLL [peptide ALDPELLLL (SEQ ID NO 78)] | 20 to 50 |
| FLLGSEIKL [peptide FLLGSEIKL (SEQ ID NO 53)] | 50 to 75 |
| KTLGKLWRL [peptide KTLGKLWRL (SEQ ID NO 64)] | 20 to 50 |

The remaining lines, values ahead:

| peptide exchange yield [%] | Binder |
| --- | --- |
| 50 to 75 | RLWTEIPTAI [peptide RLWTEIPTAI (SEQ ID NO 71)] |
| 20 to 50 | SLLKRDFGA [peptide SLLKRDFGA (SEQ ID NO 77)] |
| 20 to 50 | QVDEVVDIMRV [peptide QVDEVVDIMRV (SEQ ID NO 80)] |
| 50 to 75 | YLMGFLHAV [peptide YLMGFLHAV (SEQ ID NO 74)] |
| 50 to 75 | YLFDIAVSM [peptide YLFDIAVSM (SEQ ID NO 73)] |
| ≥ 75 | SLQELRLLL [peptide SLQELRLLL (SEQ ID NO 93)] |
| 20 to 50 | SLAADQLLKL [peptide SLAADQLLKL (SEQ ID NO 79)] |
| 20 to 50 | YLTRHLAVL [peptide YLTRHLAVL (SEQ ID NO 7)] |
| 20 to 50 | QLYEEPDTKL [peptide QLYEEPDTKL (SEQ ID NO 82)] |
| 50 to 75 | WIDDTSAFV [peptide WIDDTSAFV (SEQ ID NO 92)] |
| 50 to 75 | SILQFVHMV [peptide SILQFVHMV (SEQ ID NO 68)] |
| 50 to 75 | SLNDLEKDVMLL [peptide SLNDLEKDVMLL (SEQ ID NO 67)] |
| 50 to 75 | YLIGEKQHYL [peptide YLIGEKQHYL (SEQ ID NO 76)] |
| 20 to 50 | VLDEDEPRFL [peptide VLDEDEPRFL (SEQ ID NO 60)] |
| 50 to 75 | SLDDFLATA [peptide SLDDFLATA (SEQ ID NO 100)] |
| 50 to 75 | SLIEYEFRV [peptide SLIEYEFRV (SEQ ID NO 89)] |
| 50 to 75 | SMVEDITGLRL [peptide SMVEDITGLRL (SEQ ID NO 84)] |
| 50 to 75 | TVDVATPSV [peptide TVDVATPSV (SEQ ID NO 91)] |
| 20 to 50 | YLAPENGYL [peptide YLAPENGYL (SEQ ID NO 62)] |
| 20 to 50 | VLFTDEGVPKFL [peptide VLFTDEGVPKFL (SEQ ID NO 56)] |
| 50 to 75 | YLLDYPNNLL [peptide YLLDYPNNLL (SEQ ID NO 72)] |
